The Immune Epitope Database (IEDB)

Tests used:
HLA-B*51:01 = experiment: IEDB peptide-MHC binding, purified MHC/direct/fluorescence; filed as Kd, often an IC50 or EC50 that approximates it; ≥ and ≤ were set here for values at or beyond the usual limits of such assays; settings: source organism: Human alphaherpesvirus 1
HLA-C*05:01 = experiment: as above
HLA-A*32:15 = experiment: IEDB peptide-MHC binding, purified MHC/competitive/fluorescence; filed as Kd, often an IC50 or EC50 that approximates it; ≥ and ≤ were set here for values at or beyond the usual limits of such assays; settings: source organism: Human alphaherpesvirus 1
HLA-B*15:42 = experiment: as above
HLA-B*45:06 = experiment: as above
HLA-B*83:01 = experiment: as above
HLA-A*01:01 = experiment: IEDB peptide-MHC binding, purified MHC/direct/fluorescence; filed as Kd, often an IC50 or EC50 that approximates it; ≥ and ≤ were set here for values at or beyond the usual limits of such assays
HLA-A*03:01 [1] = experiment: as above
HLA-A*11:01 = experiment: as above
HLA-A*26:01 = experiment: as above; settings: source organism: Coxiella burnetii RSA 493
HLA-A*26:02 = experiment: as above; settings: source organism: Coxiella burnetii RSA 493
HLA-A*31:01 = experiment: as above
HLA-B*07:02 = experiment: as above
HLA-B*08:01 = experiment: as above; settings: source organism: Coxiella burnetii RSA 493
HLA-B*08:02 = experiment: as above
HLA-B*15:01 = experiment: as above
HLA-B*15:17 [2] = experiment: as above; settings: source organism: Coxiella burnetii
HLA-B*18:01 = experiment: as above
HLA-B*27:05 = experiment: as above
HLA-B*40:01 = experiment: as above
HLA-B*46:01 = experiment: as above
HLA-B*48:01 = experiment: as above
HLA-B*57:01 = experiment: as above
HLA-B*58:01 = experiment: as above
HLA-A*26:03 = experiment: IEDB peptide-MHC binding, purified MHC/competitive/fluorescence; filed as Kd, often an IC50 or EC50 that approximates it; ≥ and ≤ were set here for values at or beyond the usual limits of such assays; settings: source organism: Coxiella burnetii Dugway 5J108-111
HLA-A*68:02 = experiment: as above; settings: source organism: Coxiella burnetii Dugway 5J108-111
HLA-C*03:03 = experiment: IEDB peptide-MHC binding, purified MHC/direct/fluorescence; filed as Kd, often an IC50 or EC50 that approximates it; ≥ and ≤ were set here for values at or beyond the usual limits of such assays; settings: source organism: Vibrio vulnificus YJ016
HLA-A*03:01 [3] = experiment: IEDB peptide-MHC binding, purified MHC/competitive/fluorescence; filed as Kd, often an IC50 or EC50 that approximates it; ≥ and ≤ were set here for values at or beyond the usual limits of such assays; settings: source organism: Vibrio vulnificus YJ016
HLA-B*27:20 = experiment: as above; settings: source organism: Vibrio vulnificus YJ016
HLA-B*40:13 = experiment: as above; settings: source organism: Vibrio vulnificus YJ016
HLA-C*04:01 = experiment: as above; settings: source organism: Vibrio vulnificus YJ016
HLA-C*06:02 = experiment: as above; settings: source organism: Vibrio vulnificus YJ016
HLA-C*14:02 = experiment: as above; settings: source organism: Vibrio vulnificus YJ016
HLA-A*29:02 = experiment: IEDB peptide-MHC binding, purified MHC/direct/fluorescence; filed as Kd, often an IC50 or EC50 that approximates it; ≥ and ≤ were set here for values at or beyond the usual limits of such assays; settings: source organism: West Nile virus
HLA-B*15:09 = experiment: as above
HLA-B*39:01 = experiment: as above
HLA-B*44:02 = experiment: as above; settings: source organism: West Nile virus
HLA-A*02:01 = experiment: as above; settings: source organism: Giardia lamblia ATCC 50803
HLA-B*38:01 = experiment: as above; settings: source organism: Giardia lamblia ATCC 50803
HLA-A*69:01 = experiment: IEDB peptide-MHC binding, purified MHC/competitive/fluorescence; filed as Kd, often an IC50 or EC50 that approximates it; ≥ and ≤ were set here for values at or beyond the usual limits of such assays; settings: source organism: Giardia lamblia ATCC 50803
HLA-B*15:17 [4] = experiment: as above; settings: source organism: Giardia lamblia ATCC 50803
[5] = source organism: Human alphaherpesvirus 1
[6] = source organism: Coxiella burnetii
[7] = source organism: Vibrio vulnificus YJ016
[8] = source organism: West Nile virus
[9] = source organism: Giardia lamblia ATCC 50803

MPYAAHDPI
Kd (HLA-B*51:01): 0.364 µM | Kd (HLA-C*05:01; [5]): ≥ 20 µM | Kd (HLA-A*32:15): 0.136 µM | Kd (HLA-B*15:42; [5]): ≥ 5 µM | Kd (HLA-B*45:06; [5]): ≥ 5 µM | Kd (HLA-B*83:01; [5]): 0.172 µM

IIGLLKIFR
Kd (HLA-A*01:01; [6]): ≥ 20 µM | Kd (HLA-A*03:01 [1]; [6]): 0.407 µM | Kd (HLA-A*11:01; [6]): 0.225 µM | Kd (HLA-A*26:01): ≥ 20 µM | Kd (HLA-A*26:02): ≥ 20 µM | Kd (HLA-A*31:01; [6]): 0.0227 µM | Kd (HLA-B*07:02; [6]): ≥ 20 µM | Kd (HLA-B*08:01): ≥ 20 µM | Kd (HLA-B*08:02; source organism: Coxiella burnetii RSA 493): ≥ 20 µM | Kd (HLA-B*15:01; [6]): ≥ 20 µM | Kd (HLA-B*15:17 [2]): ≥ 20 µM | Kd (HLA-B*18:01; [6]): ≥ 20 µM | Kd (HLA-B*27:05; [6]): ≥ 20 µM | Kd (HLA-B*40:01; [6]): ≥ 20 µM | Kd (HLA-B*46:01; [6]): ≥ 20 µM | Kd (HLA-B*48:01; [6]): ≥ 20 µM | Kd (HLA-B*57:01; [6]): ≥ 20 µM | Kd (HLA-B*58:01; [6]): ≥ 20 µM | Kd (HLA-A*26:03): ≥ 20 µM | Kd (HLA-A*68:02): 1.32 µM

KMFNRASYF
Kd (HLA-C*03:03): 2.72 µM | Kd (HLA-A*03:01 [3]): 0.0048 µM | Kd (HLA-B*15:42; [7]): ≥ 5 µM | Kd (HLA-B*27:20): 0.0012 µM | Kd (HLA-B*40:13): 0.0024 µM | Kd (HLA-B*45:06; [7]): ≥ 5 µM | Kd (HLA-B*83:01; [7]): ≥ 5 µM | Kd (HLA-C*04:01): 0.304 µM | Kd (HLA-C*06:02): 0.068 µM | Kd (HLA-C*14:02): 0.004 µM

TSDYINTSL
Kd (HLA-A*03:01 [1]; [8]): ≥ 20 µM | Kd (HLA-A*11:01; [8]): ≥ 20 µM | Kd (HLA-A*29:02): ≥ 20 µM | Kd (HLA-A*31:01; [8]): ≥ 20 µM | Kd (HLA-B*15:01; [8]): ≥ 20 µM | Kd (HLA-B*15:09; source organism: West Nile virus strain PTRoxo): ≥ 5 µM | Kd (HLA-B*18:01; [8]): ≥ 20 µM | Kd (HLA-B*27:05; [8]): ≥ 20 µM | Kd (HLA-B*39:01; [8]): 1.48 µM | Kd (HLA-B*40:01; [8]): ≥ 20 µM | Kd (HLA-B*44:02): ≥ 20 µM | Kd (HLA-B*46:01; [8]): ≥ 20 µM | Kd (HLA-B*48:01; [8]): ≥ 20 µM | Kd (HLA-B*57:01; [8]): ≥ 20 µM | Kd (HLA-B*58:01; [8]): ≥ 20 µM | Kd (HLA-C*05:01; [8]): 0.21 µM

ETESVNSNY
Kd (HLA-A*01:01; [9]): 0.0188 µM | Kd (HLA-A*02:01): ≥ 20 µM | Kd (HLA-A*03:01 [1]; [9]): ≥ 20 µM | Kd (HLA-A*11:01; [9]): ≥ 20 µM | Kd (HLA-A*31:01; [9]): ≥ 20 µM | Kd (HLA-B*07:02; [9]): ≥ 20 µM | Kd (HLA-B*08:02; [9]): ≥ 20 µM | Kd (HLA-B*15:01; [9]): ≥ 20 µM | Kd (HLA-B*15:09; [9]): ≥ 20 µM | Kd (HLA-B*27:05; [9]): ≥ 20 µM | Kd (HLA-B*38:01): ≥ 20 µM | Kd (HLA-B*39:01; [9]): ≥ 20 µM | Kd (HLA-B*40:01; [9]): ≥ 20 µM | Kd (HLA-B*46:01; [9]): ≥ 20 µM | Kd (HLA-B*48:01; [9]): ≥ 20 µM | Kd (HLA-B*57:01; [9]): ≥ 20 µM | Kd (HLA-B*58:01; [9]): ≥ 20 µM | Kd (HLA-A*69:01): ≥ 20 µM | Kd (HLA-B*15:17 [4]): ≥ 20 µM
